Laboratory results taken from patent US20210386829A1, “COMPOSITIONS AND METHODS FOR MODULATING CGRP SIGNALING TO REGULATE INNATE LYMPHOID CELL INFLAMMATORY RESPONSES” (The Broad Institute, Inc., priority 2018, published 2021).

Tests used:
[1] = test system: lung ILCs; assay: CellTrace Violet proliferation assay of sort-purified lung ILCs; type: cell-based, mouse; conditions: 3 days
Method: (§1) ILC in vitro culture. For in vitro experiments 5,000 ILCs/well were cultured in a 96 well round bottom plate with 20 ng/ml IL-7 (R&D Systems), 200 ng/ml IL-25 (R&D Systems) or 20 ng/ml, 2 ng/ml or 0.2 ng/ml IL-33 (BioLegend) with or without 1 μg/ml Neuromedin U (US Biological). In some cases purified CD90.2^+ lung cells were first labeled with CellTrace Violet (Thermo Fisher Scientific), then sorted as described above, and cultured for 3 days under the indicated conditions.
Proliferation assay. Lung cells were isolated and enriched for CD90.2 cells as described above, followed by labeling with CellTrace Violet (Cat #C34557; Thermo Fisher Scientific) according to manufacturer's instructions and subsequently stained with antibodies. After 3-day culture of sort-purified ILCs with 20 ng/ml IL-7 either alone or in combination with 200 ng/ml IL-33, 100 pM CGRP or 100 nM CGRP followed by staining, expression of CellTrace Violet in live (7AAD−) ILCs was analyzed on a BD LSRFortessa (BD Biosciences).

[2] = test system: lung ILCs; assay: culture of sort-purified lung ILCs with IL-7, IL-33 or IL-25+NMU with or without CGRP (qPCR, LegendPlex, intracellular cytokine staining); type: cell-based, mouse; conditions: short-term (8 hours) IL-33 alone, no CGRP
Method: as §1
Quantitative real-time PCR. RNA was isolated using RNeasy Plus Mini Kit (Qiagen) and reverse transcribed to cDNA with iScript cDNA Synthesis Kit (Bio-Rad). Gene expression was analyzed by quantitative real-time PCR on a ViiA7 System (Thermo Fisher Scientific) using TaqMan Fast Advanced Master Mix (Thermo Fisher Scientific) with the following primer/probe sets: Il5 (Mm00439646_m1), Il13 (Mm00434204_m1), Il17rb (Mm00444709_m1), Nmur1 (Mm04207994_m1), Nmur2 (Mm00600704_m1), Nmu (Mm00479868_m1) and Actb (Applied Biosystems). Expression values were calculated relative to Actb detected in the same sample by duplex qPCR.
Cytokine quantification. Cytokine concentrations in BAL fluid, lung and supernatant of in vitro ILC cultures were analyzed by the LegendPlex Mouse Th Cytokine Panel (13-plex) (BioLegend) according to the manufacturer's instructions and analyzed on a FACS Calibur (BD Biosciences).
Culture of innate lymphoid cells. Sort-purified innate lymphoid cells (ILCs) were cultured under sterile conditions in complete medium in a humidified incubator at 37° C. and 10% CO2. ILCs were plated at a density of 3,000-5,000 ILCs per well in a 96 well round-bottom plate in cell culture medium with 20 ng/ml IL-7. Depending on the experiment, different combinations of 200 ng/ml IL-25, 200 ng/ml IL-33, 1 ug/ml NMU and 100 nM CGRP were added either at start or after overnight culture with 20 ng/ml IL-7. […]
For flow cytometric analysis, lung cells were transferred into a 96 well V-bottom plate and stained with surface antibodies for 20 min at 4° C. in the dark. Cells were washed twice with DPBS containing 2% fetal bovine serum and transferred into 1.2 ml tubes for analysis by flow cytometry. For intracellular cytokine staining, cells were incubated in complete cell culture medium with 50 ng/ml phorbol 12-myristate 13-acetate (Sigma-Aldrich), 1 uM ionomycin (Sigma-Aldrich) and GolgiStop (Cat #554724; BD Biosciences) in a humidified incubator at 37° C. and 10% CO2. After 5 hours, cells were transferred into 96 well V-bottom plate, stained with Fixable Viability Dye eFluor 506 (Cat #65-0866-14; Thermo Fisher) and surface antibodies for 20 min at 4° C. in the dark and washed twice with DPBS containing 2% fetal bovine serum. Then, cells were incubated with BD Cytofix/Cytoperm Buffer (Cat #51-2090KZ; BD Biosciences) for 20 min, followed by a wash with BD Perm/Wash Buffer (Cat #51-2091KZ; BD Biosciences). Subsequently, cells were incubated with antibodies targeting intracellular proteins diluted in BD Perm/Wash Buffer for 20 min and after two wash steps, transferred into 1.2 ml tubes for analysis by flow cytometry. For ki67 staining, cells were stained for surface antibodies as described above, fixed with a solution of Fixation/Permeabilization Concentrate (Cat #00-5123-43; Invitrogen) and Fixation/Perm Diluent (Cat #00-5223-56; Invitrogen) for 20 min, washed with Permeabilization Buffer (Cat #00-8333-56; Invitrogen). Then, cells were incubated with ki67 antibody diluted in Permeabilization Buffer for 20 min, washed and transferred into FACS tubes. Cells were analyzed on a BD LSRFortessa (BD Biosciences) flow cytometer with 5 lasers (355 nm, 405 nm, 488 nm, 561 nm and 640 nm). Data was analyzed using FlowJo v10.5.0 software and cell populations were gated as described previously (Wallrapp 2017).
RNA isolation and cDNA synthesis. […]

B1: IL-33: alarmin cytokine which activates ILC2s and induces their proliferation; used as stimulus (protein, UniProt Q8BVZ5 1-266, looked up)
Interleukin-33: MRPRMKYSNSKISPAKFSSTAGEALVPPCKIRRSQQKTKEFCHVYCMRLRSGLTIRKETSYFRKEPTKRYSLKSGTKHEENFSAYPRDSRKRSLLGSIQAFAASVDTLSIQGTSLLTQSPASLSTYNDQSVSFVLENGCYVINVDDSGKDQEQDQVLLRYYESPCPASQSGDGVDGKKLMVNMSPIKDTDIWLHANDKDYSVELQRGDVSPPEQAFFVLHKKSSDFVSFECKNLPGTYIGVKDNQLALVEEKDESCNNIMFKLSKI
ILC2 proliferation ([1]; IL-7+IL-33 vs IL-7 alone, absent CGRP): induced significant ILC2 proliferation | IL-33-activated ILCs that divided at least once ([1]; IL-7+IL-33 without CGRP): approximately 55% | frequency of IL-13-positive ILC2s (intracellular cytokine staining) [2]: ~13%
